Experimental data: article PMC5477842

Molecular target: Truncated rat Eag1 (rEag1Δ; Kv10.1 with residues 773-886 removed) (rat) (UniProt Q63472)
Experiment: cryo-EM structure

calmodulin (from UniProt P0DP23 1-149) (natural protein)
stoichiometry N (CaM molecules per rEag1 tetramer): 4
